Laboratory results reported in the DeepSol protein solubility set.

Test: soluble on expression in E. coli; label from the status in PepcDB or PDB records

Sequence | soluble on expression in E. coli
MSILLVKNAQIVNDDAIFVADILIEDGIIQNVAPNLEAPEGAEVLDAAGKLALPAGIDVYTQVTDSSVDDLSTGCKSAIAGGTGTIVEVVRPRGAESVVSAVKRVKNQLEKSGISCHVALSVAITDFCEQEMSELVKNEGINSFVLDGVSLTDDKLLELFEHVKRLGALIRVVPENKSIVAMLEKKMLKLGVTGPEGFPQSRPESLEADRVSGVCVLGNLASCPISIVQVSSADSLAAIEKARASGALAHAEIASAAVTADGSALFSQDLRFASAHLTDVPLRRGAPDRMIGALSTQPLVVCTSGHRPVNSATRVAAKDFAIAQKGSTGAEERMAVVWERAVRSGRIDAMRFVAVTSTNAAKMFNMYPKKGRIAVGADADLVIWDASGKRVLESSRAQSSQENSMYDGLTVHSVVTATIVGGKIAYQNGEVREAPVAGGFLRLSPNSPYLFSMVGQRDKFANVERVEREASSQQQKPQQNGHHKNSGDFDRNRTKVMESSIDFGGSAANRPRNPPGGRTTGFW | not soluble
MSIMGKVAKLDSAMQRGLDNSFAFVFGGKLVPAEIEELLKQEVQDNIVRAYEGGVESPNVFRVRVSRKDAQNLAQRYPSLADDFADRLSRYTRNQGWSTEGPVVVTIAADSGLRTGQLHASSAFDPVPQEYSHFIGVEDDVAAAAPTNDESNYESESGMNSYDADPRTEYMTAQAPDAIYTEVPVPEPKATPTVSLLLQDGSSRTYLVEEGSNIIGRSNEAHFRLPDTGVSRQHAEITWNGRDAILTDLKSTNGTTVNDTPVENWLLEDGDVITVGHSHIEVRIVEPN | not soluble
MSIMLPINNNFSLSQNSFYNTISGTYADYFSAWDKWEKQALPGENRNEAVSLLKECLINQFSELQLNRLNLSSLPDNLPPQITVLEITQNALISLPELPASLEYLDACDNRLSTLPELPASLKHLDVDNNQLTMLPELPALLEYINADNNQLTMLPELPTSLEVLSVRNNQLTFLPELPESLEALDVSTNLLESLPAVPVRNHHSEETEIFFRCRENRITHIPENILSLDPTCTIILEDNPLSSRIRESLSQQTAQPDYHGPRIYFSMSDGQQNTLHRPLADAVTAWFPENKQSDVSQIWHAFEHEEHANTFSAFLDRLSDTVSARNTSGFREQVAAWLEKLSASAELRQQSFAVAADATESCEDRVALTWNNLRKTLLVHQASEGLFDNDTGALLSLGREMFRLEILEDIARDKVRTLHFVDEIEVYLAFQTMLAEKLQLSTAVKEMRFYGVSGVTANDLRTAEAMVRSREENEFTDWFSLWGPWHAVLKRTEADRWALAEEQKYEMLENEYPQRVADRLKASGLSGDADAEREAGAQVMRETEQQIYRQLTDEVLALRLPENGSQLHHS | soluble
MSINVDEFQCYRIPNVYVQWYDLEPTIHWLTGGNSNSRQIQEMDQKKKKIRSTSAYALFFRERQSLEKRAAPYATFGQISQKIARQWDSLTEEEKKAYKQRCEKNRKTSIANAVEEKARQLLTASKFQ | not soluble
MSIPEELWRRFQEGDPRALARALTLVESGHPAGRELLKRVRGKGRAKVVGVTGSPGAGKSTLTDRLILEARKRGERVAVLAVDPSSPFSGGAILGDRIRMMRHHQDPGVYIRSMASRGALGGLAGATVAALSLLEAFGFDRIFVETVGVGQSEVDIARVADTTLLVLTPAAGDAVQAFKAGVMEIADVFAVNKFDLPGGERIVQELKSALELSPPRPGGWRPPIHPTVAASGEGVEALFESLEAHHRHLVEHGLLEAHRLERARFEVESVIQEWGRQRTQGAGALVARVARGELTPEEAALALLGPGPEAEEGAL | soluble
MSIWKEAKDASGRIYYYNTLTKKSTWEKPKELISQEELLLRENGWKAAKTADGKVYYYNPTTRETSWTIPAFEKK | soluble
MSIYKIPLPLNILEAARERITWTLNTLPRVCVSFSGGKDSGLMLHLTAELARQMGKKICVLFIDWEAQFSCTINYVQSLRELYTDVIEEFYWVALPLTTQNSLSQYQPEWQCWEPDVEWVRQPPQDAITDPDFFCFYQPGMTFEQFVREFAEWFSQKRPAAMMIGIRADESYNRFVAIASLNKQRFADDKPWTTAAPGGHSWYIYPIYDWKVADIWTWYANHQSLCNPLYNLMYQAGVPLRHMRICEPFGPEQRQGLWLYHVIEPDRWAAMCARVSGVKSGGIYAGHDNHFYGHRKILKPEHLDWQEYALLLLNSMPEKTAEHYRNKIAIYLHWYQKKGIEVPQTQQGDIGAKDIPSWRRICKVLLNNDYWCRALSFSPTKSKNYQRYNERIKGKRQEWGILCNND | not soluble
MSKELFLEIGTEEIPAGFLPKAMADMEAIVTKELENARLAFGEVKTFATPRRLALVVKGLPTVQPDAEITALGPARNIAFGPDGTPSKAAEGFARGQGVDVASLTLVSTEKGEYVAAVRKESGRPVPDLLAEILPRLVGGIPFRKSMRWADLDVRFARPIHWIVALFDGVVVPFAFGNVQSGNVSRGHRFMANQPFPVRDFAHYLDECERHFVIPDPERRKETIRREIHRVAKTAGGHLLPDEGLLDEVAYLVEYPSVVHGTFSPDFLKVPREVLITSMRSHQRYFSIVDDAGKLMPGFITINNTLTEDPSVVVKGNERVLRARLSDARFFFEEDQKVKLETRVESLKNVVYQQKLGTSYEKMERFRALAEGLADLLNPAVKAKTSRAAFLCKADLVSGMVGEFPEVQGIMGREYALLQGEDAEVAAAIAEHYLPTQAGGDLPASDIGAFVSIADKLDTICGCFGVGLIPTGSADPYALRRSALGIINIILDRGCRLSLEGEIGKALELLSAKLTRPAAEVMADVLEFFRGRFVNLMADRYPADAVDAAIAAGFDD | not soluble
MSKGGWYLWHYLTLLKGKAYCDIYCKRITFNVKFRYVYRHFHWYSSSNNKFKQLEHHHHHH | not soluble
MSKIEQIITEIEEYIDNCKFQPLSTSKIIVNKDEIDELLAELRLRTPDEIKKYQKIIANKDAILNDAKERAEAMVSEATAHINQLVSEHEIMQKAYEEANQIIEQAQAEAQGILDSATTEANDLRTRAMQYTDDILANVQSILSTGMDSFESAQNTMMTSLNSSLNVVVESRKELGGAEDEESVENGEDDNLSVDLL | not soluble
MSKKLKPFEILEDSCASVCIWLNGEPTAISNRAENLWNKAKYRVATDGAVNEILKRKSFVEWPHIICGDFDSINKQIDTKNAKVVHLPDQDYTDLSKSVQWCLEQKTLTSWEFENIVVLGGLNGRFDHTMSTLSSLIRFVDSQTPVIVLDSRNLVLAVPTGDSNLDVNLEMTTKMCGIIPIVQKETIKTLLLNLENLSARRMKLPRAKYF | not soluble
MSKNMQNTSYRKLDVDSFDPEQYDENDETVDTPGLGPDERAVQGFLSSNRLEDALHAALLSPPLKTKDQNVKDRATQLVTKVLQSFKNAEIEATVQKLSIEESDILMKYVYKSMEIGADAAVCQSLLAWHAQLVAKFGHGAIMRVFSGRQRL | soluble
MSKPFKLNSAFKPSGDQPEAIRRLEEGLEDGLAHQTLLGVTGSGKTFTIANVIADLQRPTMVLAPNKTLAAQLYGEMKEFFPENAVEYFVSYYDYYQPEAYVPSSDTFIEKDASVNEHIEQMRLSATKAMLERRDVVVVASVSAIYGLGDPDLYLKMMLHLTVGMIIDQRAILRRLAELQYARNDQAFQRGTFRVRGEVIDIFPAESDDIALRVELFDEEVERLSLFDPLTGQIVSTIPRFTIYPKTHYVTPRERIVQAMEEIKEELAARRKVLLENNKLLEEQRLTQRTQFDLEMMNELGYCSGIENYSRFLSGRGPGEPPPTLFDYLPADGLLVVDESHVTIPQIGGMYRGDRARKETLVEYGFRLPSALDNRPLKFEEFEALAPQTIYVSATPGNYELEKSGGDVVDQVVRPTGLLDPIIEVRPVATQVDDLLSEIRQRAAINERVLVTTLTKRMAEDLTEYLEEHGERVRYLHSDIDTVERMEIIRDLRLGEFDVLVGINLLREGLDMPEVSLVAILDADKEGFLRSERSLIQTIGRAARNVNGKAILYGDKITPSMAKAIGETERRREKQQKYNEEHGITPQGLNKKVVDILALGQNIAKTKAKGRGKSRPIVEPDNVPMDMSPKALQQKIHELEGLMMQHAQNLEFEEAAQIRDQLHQLRELFIAAS | soluble
MSKPKYPFEKRLEVVNHYFTTDDGYRIISARFGVPRTQVRTWVALYEKHGEKGLIPKPKGVSADPELRIKVVKAVIEQHMSLNQAAAHFMLAGSGSVARWLKVYEERGEAGLRALKIGTKRNIAISVDPEKAASALELSKDRRIEDLERQVRFLETRLMYLKKLKALAHPTKK | not soluble
MSKTFRVSKVTSGNSKAIQQTKPITILLMGVDTGSKGRKETWEGNSDTMILVTVNPKTKRTTMTSLERDLLADVEGSGEAKLNSAYAEGGADLAISTIQKVLDIDIDYYALINMHGMIDLVDAVGGIEVTNHFDFPISIAENEPEFQAKVEPGTHKINGEQALVYSRMRYDDPDGDYGRQKRQREVIQKIVAKLLKMDSIGSYKKILSAVSSNVQTSINLGDSTTLRGLMGYSEALKNIKSYQLAGSDAMINGGSYQVASTEDILKVQNRIKKEVGKKGVSESKLKTSLVLNDFGTSSYVSDDFVNSTGSYEAGPSEATGGGSVSTYYGGTTYGNSYTENTSNYVQDQATTAPTINYNGSGVTTYNLVPAAQLEHHHHHH | soluble
MSKVMNALKQSQQKYLQAQPVSRRTYTEQEPTAMNPSRWLHLALWLVPGLVTAGVMTYQRYELVQQEVANRQTEPTTVQVDAPLERLAYPEFQDLQPTFVESGLDEPYPEEDVTALADNIVAPPATIQASGQQSASNKALGDLDLTQLSPELALRVQAIMRDQSSEPATPSTPTSAAVSLTQHSDRYQGQLPALNFQMHAFSSNEQKRWIKVNGVEYREGDMLTPEVKLESIKPQSSVIIFGGEEIEIPALYDWKG | not soluble
MSKWIILSDNHKETGILYHIYELHKDADKFLHLGDSEFSYNDTELSLYQRVKGNCDFYPEFLEEEITEENGIRAFYTHGHLYQVNQTRMKLAEKAKELGCLFAFYGHTHVAKYEQIGGIHVINPGSISQSRSQIEETFAELVYKEDENTIILNFRNRENQIIETVKIEFLEHHHHHH | soluble
MSKYAILGLVLVGTVASLDFIGRTQSAAIKGRLVCEGKPASGVKVKLMESDNSFGPGFLDSDDKMASGKADSHGEFNLSGSTKEITGIEPYLVVFHDCKDGITPCQRVFRVNVPKSYTNSGSSAKKTYDAGVIELAGKYPGETRSCLN | not soluble
MSKYLHSEKAYLDLINAVKDKFNYKKSVVPYIIYFLLKTGMRYGELIALTWEDIDFDKGIFKTYRRFNSETSQFVPPKNKTSIRIVPVDNECLEILKNLKIEQNQSNKELGLQNTNNMVFQHFGYPNSVPSTNGTNKVLRGIVQELNIEPIITTKGARHTYGSFLWHRGYDLGIIAKILGHKDISMLIEVYGHTLEEKIQEEYNEIKQLWLEHHHHHH | soluble
MSLAACSGGGNSSQGSGGSKFAFWDMPWGSPGPDYLAAGKEISAAFSGGSATYQSISWDGWLQTFSSAIAAGTGPAISTGGAFQSLQYYVQDAVHPADGVIAKLRSKGQLDDFLPGTLDVFKYKGAYTALPWNVDSRLLWYRKSLLEKAGVEEPRSWDDLYRVGVALKKNDVYGMVASGGAGGNAYQTFLSFVFNNGGGLFDKDGEPQCVTDANVEAVEFLMKLAKDGIMDPGSVSYTVANLNDQFSSGAAALSILPPDIANSFEDPRLKADITLGSPLTSPNGTKGTMAYTSDLILYTGDWDTDVVEDFAVYYLDAMSAYWKKGVLNKVPVRQSILDLPEVQAQPNLVKATKEWLPVGKSLTQLAGEPFPEINAVDGGQAITQWAQQVIQAKSSGEQTLRTLQDGIEKVMEGHHHITTDPNSSSVDKLAAALEHHHHHH | soluble
